Publication PMC7538681

How the values were obtained:
[1] = molecular target: Sinorhizobium meliloti glutaredoxin 2 (SmGrx2), untagged (Sinorhizobium meliloti (strain Sm2011)); assay: ITC; SmGrx2 (50 µM, in the cell) titrated with SmYrbA (800 µM), 30 mM phosphate buffer pH 8.0, 20°C, one-set-of-sites model, duplicate
[2] = molecular target: N-terminal His-tagged SmYrbA (Sinorhizobium meliloti (strain Sm2011)); assay: switchSENSE; His-tagged SmYrbA held on Ni-NTA3-tagged 48mer DNA nanolevers on the chip; SmGrx2 injected at 25, 50 and 100 µM; 10 mM potassium phosphate pH 7.4, 2 mM MgCl2; 25°C; switching dynamic mode; single-exponential fits; Kd = koff/kon
Sequence of N-terminal His-tagged SmYrbA (Sinorhizobium meliloti (strain Sm2011)) (main, as listed by the source): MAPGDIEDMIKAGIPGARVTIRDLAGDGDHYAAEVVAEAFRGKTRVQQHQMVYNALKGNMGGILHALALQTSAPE

Kd [1] [µM] | dH [1] [kcal/mol] | stoichiometry N [1] | Kd [2] [µM] | dissociation halftime [2] [s] | koff [2] [s⁻¹] | kon [2] [M⁻¹ s⁻¹] | Substance
6.8 | -2.9 | 1.27 | – | – | – | – | Sinorhizobium meliloti YrbA (SmYrbA), untagged (natural protein)
– | – | – | 5.6 | 50 | 0.014 | 2410 | Sinorhizobium meliloti glutaredoxin 2 (SmGrx2), untagged (natural protein)
